# Test results as given in patent publication US20140072613A1, “Compositions and Methods for Treating Cutaneous Scarring” (priority 2012, published 2014).
# Tests used:
# Experiment in all cases: biochemical
# Format in all cases: biochemical
# 266 human kinases [1] = target: T1, 266 human kinases (Homo sapiens, UniProt O60285); settings: ARK5(h); 100 μM
# T1 sequence (O60285 1-661): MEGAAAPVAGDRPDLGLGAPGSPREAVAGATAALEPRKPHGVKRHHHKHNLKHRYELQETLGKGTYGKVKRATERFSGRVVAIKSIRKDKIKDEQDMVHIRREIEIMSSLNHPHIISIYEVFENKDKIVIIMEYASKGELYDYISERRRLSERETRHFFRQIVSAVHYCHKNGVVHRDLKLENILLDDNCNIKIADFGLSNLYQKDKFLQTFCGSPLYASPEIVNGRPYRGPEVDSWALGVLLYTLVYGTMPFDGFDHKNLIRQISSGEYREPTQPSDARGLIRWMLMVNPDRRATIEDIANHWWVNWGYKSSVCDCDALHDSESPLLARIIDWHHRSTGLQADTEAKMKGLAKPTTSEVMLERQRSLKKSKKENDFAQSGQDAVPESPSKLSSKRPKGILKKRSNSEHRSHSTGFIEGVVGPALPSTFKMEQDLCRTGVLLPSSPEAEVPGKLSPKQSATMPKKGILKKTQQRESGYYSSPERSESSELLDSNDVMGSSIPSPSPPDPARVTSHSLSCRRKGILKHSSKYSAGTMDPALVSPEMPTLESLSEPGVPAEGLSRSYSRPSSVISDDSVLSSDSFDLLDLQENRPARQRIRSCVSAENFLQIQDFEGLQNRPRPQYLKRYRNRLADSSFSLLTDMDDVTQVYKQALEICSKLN
# Text: (§1) Specifically, in these assays, a positively charged substrate is phosphorylated with a radiolabeled phosphate group from an ATP if the kinase is not inhibited by an inhibitor peptide. The positively charged substrate then is attracted to a negatively charged filter membrane, quantified with a scintillation counter, and compared to a 100% activity control.
# 266 human kinases [2] = target: 266 human kinases (Homo sapiens, UniProt P09619); settings: PDGFRβ(h); 100 μM
# Text: as §1
# 266 human kinases [3] = target: 266 human kinases (Homo sapiens, UniProt P17252); settings: PKCα(h); 100 μM
# Text: as §1
# 266 human kinases [4] = target: 266 human kinases (Homo sapiens, UniProt P36888); settings: Flt3(h); 100 μM
# Text: as §1
# 266 human kinases [5] = target: T2, 266 human kinases (Homo sapiens, UniProt P41743); settings: PKCι(h); 100 μM
# T2 sequence (P41743 1-596): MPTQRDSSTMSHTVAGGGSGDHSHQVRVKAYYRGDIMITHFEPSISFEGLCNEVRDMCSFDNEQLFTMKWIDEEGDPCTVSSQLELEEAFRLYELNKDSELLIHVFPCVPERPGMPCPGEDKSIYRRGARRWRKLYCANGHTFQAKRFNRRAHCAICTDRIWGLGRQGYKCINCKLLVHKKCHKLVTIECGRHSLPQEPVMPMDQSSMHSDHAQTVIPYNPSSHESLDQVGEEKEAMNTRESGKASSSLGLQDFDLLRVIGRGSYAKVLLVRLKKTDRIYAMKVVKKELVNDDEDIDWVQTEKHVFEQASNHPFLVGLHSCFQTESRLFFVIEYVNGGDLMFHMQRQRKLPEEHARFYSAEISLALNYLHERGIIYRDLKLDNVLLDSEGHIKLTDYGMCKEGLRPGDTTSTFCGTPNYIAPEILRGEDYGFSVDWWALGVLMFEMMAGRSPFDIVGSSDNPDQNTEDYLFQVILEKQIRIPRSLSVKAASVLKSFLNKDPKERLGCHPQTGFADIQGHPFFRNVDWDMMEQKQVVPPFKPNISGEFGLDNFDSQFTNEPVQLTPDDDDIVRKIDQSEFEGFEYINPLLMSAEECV
# Text: as §1
# 266 human kinases [6] = target: T3, 266 human kinases (Homo sapiens, UniProt P42680); settings: Tec(h)activated; 100 μM
# T3 sequence (P42680 1-631): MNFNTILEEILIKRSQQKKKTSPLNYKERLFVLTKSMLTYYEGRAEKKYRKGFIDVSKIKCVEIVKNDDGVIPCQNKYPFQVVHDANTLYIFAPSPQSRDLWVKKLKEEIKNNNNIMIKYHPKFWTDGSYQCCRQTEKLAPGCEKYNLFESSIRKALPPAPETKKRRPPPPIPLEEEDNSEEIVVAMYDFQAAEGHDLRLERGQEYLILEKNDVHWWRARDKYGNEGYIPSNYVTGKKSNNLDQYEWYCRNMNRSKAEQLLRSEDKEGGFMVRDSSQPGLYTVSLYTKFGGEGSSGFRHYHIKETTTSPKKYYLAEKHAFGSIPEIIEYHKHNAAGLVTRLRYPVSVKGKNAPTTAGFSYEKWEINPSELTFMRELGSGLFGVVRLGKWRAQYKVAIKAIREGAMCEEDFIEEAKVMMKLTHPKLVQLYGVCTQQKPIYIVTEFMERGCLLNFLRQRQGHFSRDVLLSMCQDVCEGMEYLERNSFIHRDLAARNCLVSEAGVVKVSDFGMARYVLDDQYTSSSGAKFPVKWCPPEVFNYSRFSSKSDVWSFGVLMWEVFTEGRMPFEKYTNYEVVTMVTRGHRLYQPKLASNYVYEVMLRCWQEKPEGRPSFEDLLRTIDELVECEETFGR
# Text: as §1
# 266 human kinases [7] = target: 266 human kinases (Homo sapiens, UniProt P51812); settings: Rsk2(h); 100 μM
# Text: as §1
# 266 human kinases [8] = target: 266 human kinases (Homo sapiens, UniProt Q14289); settings: Pyk2 (h); 100 μM
# Text: as §1
# 266 human kinases [9] = target: T4, 266 human kinases (Homo sapiens, UniProt Q15831); settings: LKB1(h); 100 μM
# T4 sequence (Q15831 1-433): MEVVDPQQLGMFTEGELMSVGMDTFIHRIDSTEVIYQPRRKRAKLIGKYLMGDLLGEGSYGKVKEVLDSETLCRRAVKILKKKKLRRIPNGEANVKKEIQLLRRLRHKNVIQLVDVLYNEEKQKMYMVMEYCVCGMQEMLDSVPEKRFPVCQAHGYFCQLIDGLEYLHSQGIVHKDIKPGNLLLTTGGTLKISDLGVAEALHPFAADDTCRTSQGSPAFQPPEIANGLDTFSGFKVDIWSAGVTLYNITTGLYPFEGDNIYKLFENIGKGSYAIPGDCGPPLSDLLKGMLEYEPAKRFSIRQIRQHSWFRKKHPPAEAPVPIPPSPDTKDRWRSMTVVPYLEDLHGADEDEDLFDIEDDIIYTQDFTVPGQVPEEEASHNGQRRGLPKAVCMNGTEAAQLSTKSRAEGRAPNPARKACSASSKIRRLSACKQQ
# Text: as §1
# 266 human kinases (Homo sapiens, UniProt P09619), sequence (P09619 33-1106): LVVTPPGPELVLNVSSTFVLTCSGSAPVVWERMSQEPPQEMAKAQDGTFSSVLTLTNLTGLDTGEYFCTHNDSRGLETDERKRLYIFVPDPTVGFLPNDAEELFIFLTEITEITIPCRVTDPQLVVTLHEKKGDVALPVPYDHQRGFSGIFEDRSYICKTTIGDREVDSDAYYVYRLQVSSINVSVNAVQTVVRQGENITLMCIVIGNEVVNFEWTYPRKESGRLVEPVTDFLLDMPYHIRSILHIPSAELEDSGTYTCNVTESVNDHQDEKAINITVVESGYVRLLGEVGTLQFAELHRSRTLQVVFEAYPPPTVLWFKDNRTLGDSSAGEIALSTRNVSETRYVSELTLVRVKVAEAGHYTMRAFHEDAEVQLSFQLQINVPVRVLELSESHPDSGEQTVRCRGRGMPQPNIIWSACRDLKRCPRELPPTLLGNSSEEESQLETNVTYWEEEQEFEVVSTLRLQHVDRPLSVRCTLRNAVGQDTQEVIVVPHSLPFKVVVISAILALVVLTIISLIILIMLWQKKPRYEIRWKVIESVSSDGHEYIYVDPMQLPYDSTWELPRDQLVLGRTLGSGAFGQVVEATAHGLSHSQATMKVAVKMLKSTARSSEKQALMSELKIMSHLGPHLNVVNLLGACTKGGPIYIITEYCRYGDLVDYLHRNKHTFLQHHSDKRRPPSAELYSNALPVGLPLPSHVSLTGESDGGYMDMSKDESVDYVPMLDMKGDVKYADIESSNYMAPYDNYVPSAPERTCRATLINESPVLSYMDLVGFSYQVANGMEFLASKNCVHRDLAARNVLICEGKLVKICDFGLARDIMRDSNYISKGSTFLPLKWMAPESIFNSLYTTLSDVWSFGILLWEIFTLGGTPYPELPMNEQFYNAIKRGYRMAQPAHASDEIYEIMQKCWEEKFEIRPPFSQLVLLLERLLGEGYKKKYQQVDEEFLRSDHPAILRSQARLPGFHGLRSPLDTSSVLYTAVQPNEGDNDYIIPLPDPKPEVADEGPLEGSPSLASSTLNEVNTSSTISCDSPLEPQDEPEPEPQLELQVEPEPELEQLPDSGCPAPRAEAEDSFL
# 266 human kinases (Homo sapiens, UniProt Q14289), sequence (Q14289 whole entry): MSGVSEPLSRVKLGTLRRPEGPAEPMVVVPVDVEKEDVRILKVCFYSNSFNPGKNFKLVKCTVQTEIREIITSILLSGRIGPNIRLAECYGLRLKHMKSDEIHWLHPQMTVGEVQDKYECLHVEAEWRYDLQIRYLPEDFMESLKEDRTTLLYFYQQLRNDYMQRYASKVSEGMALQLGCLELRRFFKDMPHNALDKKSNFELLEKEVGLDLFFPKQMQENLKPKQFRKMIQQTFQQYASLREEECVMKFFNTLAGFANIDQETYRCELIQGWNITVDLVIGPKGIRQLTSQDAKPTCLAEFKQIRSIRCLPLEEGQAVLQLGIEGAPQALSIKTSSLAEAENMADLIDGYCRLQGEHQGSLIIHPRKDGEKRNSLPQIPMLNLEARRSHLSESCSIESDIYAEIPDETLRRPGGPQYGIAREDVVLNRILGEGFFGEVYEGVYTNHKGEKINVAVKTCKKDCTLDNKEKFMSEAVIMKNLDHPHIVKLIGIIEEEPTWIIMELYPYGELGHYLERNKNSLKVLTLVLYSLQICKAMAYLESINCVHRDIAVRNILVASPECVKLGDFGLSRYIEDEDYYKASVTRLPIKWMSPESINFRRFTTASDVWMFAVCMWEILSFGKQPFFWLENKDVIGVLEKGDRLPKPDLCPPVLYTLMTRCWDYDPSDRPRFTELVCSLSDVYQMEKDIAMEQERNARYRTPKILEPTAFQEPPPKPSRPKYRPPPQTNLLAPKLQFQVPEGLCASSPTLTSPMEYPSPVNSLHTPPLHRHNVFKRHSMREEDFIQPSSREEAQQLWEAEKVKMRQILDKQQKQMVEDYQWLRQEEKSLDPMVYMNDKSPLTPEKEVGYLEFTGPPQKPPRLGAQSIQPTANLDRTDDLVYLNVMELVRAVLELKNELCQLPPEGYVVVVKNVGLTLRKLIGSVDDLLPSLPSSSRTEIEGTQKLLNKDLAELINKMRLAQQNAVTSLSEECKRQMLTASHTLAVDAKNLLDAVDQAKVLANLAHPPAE
# 266 human kinases (Homo sapiens, UniProt P51812), sequence (P51812 whole entry): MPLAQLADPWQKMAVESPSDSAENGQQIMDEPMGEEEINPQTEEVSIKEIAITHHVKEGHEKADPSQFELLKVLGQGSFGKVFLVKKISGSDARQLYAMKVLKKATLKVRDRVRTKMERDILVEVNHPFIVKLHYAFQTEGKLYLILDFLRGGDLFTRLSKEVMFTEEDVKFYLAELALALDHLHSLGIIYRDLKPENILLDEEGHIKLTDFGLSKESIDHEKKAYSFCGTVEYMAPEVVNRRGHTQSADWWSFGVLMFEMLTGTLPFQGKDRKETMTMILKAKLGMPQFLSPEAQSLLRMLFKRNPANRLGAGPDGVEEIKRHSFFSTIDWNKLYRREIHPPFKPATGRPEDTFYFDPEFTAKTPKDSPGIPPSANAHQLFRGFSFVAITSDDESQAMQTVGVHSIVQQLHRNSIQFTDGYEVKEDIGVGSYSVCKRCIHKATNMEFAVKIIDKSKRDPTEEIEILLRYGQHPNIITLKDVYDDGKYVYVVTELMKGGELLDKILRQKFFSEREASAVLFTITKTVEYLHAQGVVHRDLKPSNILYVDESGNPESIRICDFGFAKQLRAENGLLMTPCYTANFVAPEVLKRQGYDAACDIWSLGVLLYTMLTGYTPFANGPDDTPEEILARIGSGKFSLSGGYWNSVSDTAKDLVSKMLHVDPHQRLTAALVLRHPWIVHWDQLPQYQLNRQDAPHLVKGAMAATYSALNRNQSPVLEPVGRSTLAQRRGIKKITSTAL
Sequence,% activity (266 human kinases [1]),% activity (266 human kinases [2]),% activity (266 human kinases [3]),% activity (266 human kinases [4]),% activity (266 human kinases [5]),% activity (266 human kinases [6]),% activity (266 human kinases [7]),% activity (266 human kinases [8]),% activity (266 human kinases [9])
HRRIKAWLKKIKALARQLGVAA (mammal) [MMI-0500],20%,40%,3%,17%,7%,33%,14%,46%,51%
YARAAARQARAKALNRQLGVA (mammal) [MMI-0200],93%,137%,100%,99%,97%,77%,101%,127%,99%
